Laboratory results published in article PMC3215702, “The Nuclear Pore Complex Mediates Binding of the Mig1 Repressor to Target Promoters” (PLoS ONE, 2011).

B1: Nup53-lexA (natural protein, S. cerevisiae, UniProt Q03790 1-475, looked up)
chain: MADLQKQENSSRFTNVSVIAPESQGQHEQQKQQEQLEQQKQPTGLLKGLNGFPSAPQPLFMEDPPSTVSGELNDNPAWFNNPRKRAIPNSIIKRSNGQSLSPVRSDSADVPAFSNSNGFNNVTFGSKKDPRILKNVSPNDNNSANNNAHSSDLGTVVFDSNEAPPKTSLADWQKEDGIFSSKTDNIEDPNLSSNITFDGKPTATPSPFRPLEKTSRILNFFDKNTKTTPNTASSEASAGSKEGASTNWDDHAIIIFGYPETIANSIILHFANFGEILEDFRVIKDFKKLNSKNMSKSPSLTAQKYPIYTGDGWVKLTYKSELSKSRALQENGIIMNGTLIGCVSYSPAALKQLASLKKSEEIINNKTSSQTSLSSKDLSNYRKTEGIFEKAKAKAVTSKVRNAEFKVSKNSTSFKNPRRLEIKDGRSLFLRNRGKIHSGVLSSIESDLKKREQASKSKKSWLNRLNNWLFGWNDL
notes: Nup53, nucleoporin, S. cerevisiae; source: S. cerevisiae Mig1-GFP strain, in crude lysate

Legend:
[1] = target: nuclear pore complex of nup120Δ cells (S. cerevisiae (endogenous)) (UniProt P52891); test: co-fractionation with isolated NPCs (QFPD, quantitative fluorescent protein detection); glucose-grown (repressing) cells; nuclei isolated on sucrose/PVP-40 gradients, lysed with DNase I, NPC fraction floated on sucrose/Nycodenz gradient; GFP fluorescence of the fractions read on a Typhoon imager; values relative to wild type; also done in gcr1Δ and gcr1Δ nup84Δ strains
[2] = target: nuclear pore complex of nup133Δ cells (S. cerevisiae (endogenous)) (UniProt P52891); test: as above
[3] = target: nuclear pore complex of nup84Δ cells (S. cerevisiae (endogenous)) (UniProt P35729); test: as above
Mig1-GFP fusion protein = target: T1, Mig1-GFP fusion protein (S. cerevisiae, UniProt P27705 1-504); test: co-IP; anti-GFP antibody added to crude lysate of glucose-grown cells, protein A sepharose; eluate blotted and probed with anti-lexA antibody (anti-GFP as control); conditions: partners not purified
T1 construct: Mig1, glucose-regulated repressor of S. cerevisiae; GFP tag integrated at the MIG1 locus; Called a fully functional fusion; also called GFP-tagged Mig1; source: S. cerevisiae, Mig1-GFP strain from the Yeast GFP Clone collection (Invitrogen), integrated GFP tag; in crude lysate or cell fractions
T1 sequence (P27705 whole entry, the tested form may be a part): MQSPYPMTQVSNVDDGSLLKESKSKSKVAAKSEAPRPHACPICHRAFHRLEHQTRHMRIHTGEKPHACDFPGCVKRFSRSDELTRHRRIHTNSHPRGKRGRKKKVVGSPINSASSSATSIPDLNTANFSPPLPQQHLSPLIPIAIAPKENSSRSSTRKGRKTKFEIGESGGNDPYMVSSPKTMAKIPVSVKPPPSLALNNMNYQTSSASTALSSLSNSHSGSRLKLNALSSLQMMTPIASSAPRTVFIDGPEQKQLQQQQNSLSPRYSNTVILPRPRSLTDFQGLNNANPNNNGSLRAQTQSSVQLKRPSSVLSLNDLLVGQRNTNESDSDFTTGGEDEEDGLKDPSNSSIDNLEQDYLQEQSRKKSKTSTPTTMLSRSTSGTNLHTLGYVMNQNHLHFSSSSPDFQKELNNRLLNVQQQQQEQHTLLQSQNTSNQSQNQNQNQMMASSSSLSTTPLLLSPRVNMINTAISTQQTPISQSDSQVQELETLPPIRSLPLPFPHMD

Chain of nuclear pore complex of nup120Δ cells (S. cerevisiae (endogenous)) (P52891 whole entry, looked up, stated change not applied, one chain of several): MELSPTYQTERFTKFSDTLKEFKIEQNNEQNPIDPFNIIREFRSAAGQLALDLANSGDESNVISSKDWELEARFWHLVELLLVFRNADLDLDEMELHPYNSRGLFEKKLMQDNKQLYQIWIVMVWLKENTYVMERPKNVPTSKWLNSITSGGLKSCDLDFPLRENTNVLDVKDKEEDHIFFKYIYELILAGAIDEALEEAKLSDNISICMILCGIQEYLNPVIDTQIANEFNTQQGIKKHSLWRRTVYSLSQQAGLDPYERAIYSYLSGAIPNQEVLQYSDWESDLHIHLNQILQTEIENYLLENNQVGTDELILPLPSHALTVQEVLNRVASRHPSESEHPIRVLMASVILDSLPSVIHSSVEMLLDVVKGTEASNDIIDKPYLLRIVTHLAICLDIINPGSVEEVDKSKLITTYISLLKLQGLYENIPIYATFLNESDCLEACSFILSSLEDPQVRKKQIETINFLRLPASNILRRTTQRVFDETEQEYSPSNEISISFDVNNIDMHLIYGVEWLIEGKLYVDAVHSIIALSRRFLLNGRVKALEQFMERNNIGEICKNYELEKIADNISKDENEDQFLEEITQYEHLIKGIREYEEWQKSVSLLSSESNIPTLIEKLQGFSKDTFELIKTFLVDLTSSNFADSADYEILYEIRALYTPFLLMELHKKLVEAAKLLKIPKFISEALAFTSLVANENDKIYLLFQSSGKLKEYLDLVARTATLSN
Chain of nuclear pore complex of nup133Δ cells (S. cerevisiae (endogenous)) (P52891 whole entry, looked up, stated change not applied, one chain of several): as above
Chain of nuclear pore complex of nup84Δ cells (S. cerevisiae (endogenous)) (P35729 whole entry, looked up, stated change not applied, the tested form may be a part, one chain of several): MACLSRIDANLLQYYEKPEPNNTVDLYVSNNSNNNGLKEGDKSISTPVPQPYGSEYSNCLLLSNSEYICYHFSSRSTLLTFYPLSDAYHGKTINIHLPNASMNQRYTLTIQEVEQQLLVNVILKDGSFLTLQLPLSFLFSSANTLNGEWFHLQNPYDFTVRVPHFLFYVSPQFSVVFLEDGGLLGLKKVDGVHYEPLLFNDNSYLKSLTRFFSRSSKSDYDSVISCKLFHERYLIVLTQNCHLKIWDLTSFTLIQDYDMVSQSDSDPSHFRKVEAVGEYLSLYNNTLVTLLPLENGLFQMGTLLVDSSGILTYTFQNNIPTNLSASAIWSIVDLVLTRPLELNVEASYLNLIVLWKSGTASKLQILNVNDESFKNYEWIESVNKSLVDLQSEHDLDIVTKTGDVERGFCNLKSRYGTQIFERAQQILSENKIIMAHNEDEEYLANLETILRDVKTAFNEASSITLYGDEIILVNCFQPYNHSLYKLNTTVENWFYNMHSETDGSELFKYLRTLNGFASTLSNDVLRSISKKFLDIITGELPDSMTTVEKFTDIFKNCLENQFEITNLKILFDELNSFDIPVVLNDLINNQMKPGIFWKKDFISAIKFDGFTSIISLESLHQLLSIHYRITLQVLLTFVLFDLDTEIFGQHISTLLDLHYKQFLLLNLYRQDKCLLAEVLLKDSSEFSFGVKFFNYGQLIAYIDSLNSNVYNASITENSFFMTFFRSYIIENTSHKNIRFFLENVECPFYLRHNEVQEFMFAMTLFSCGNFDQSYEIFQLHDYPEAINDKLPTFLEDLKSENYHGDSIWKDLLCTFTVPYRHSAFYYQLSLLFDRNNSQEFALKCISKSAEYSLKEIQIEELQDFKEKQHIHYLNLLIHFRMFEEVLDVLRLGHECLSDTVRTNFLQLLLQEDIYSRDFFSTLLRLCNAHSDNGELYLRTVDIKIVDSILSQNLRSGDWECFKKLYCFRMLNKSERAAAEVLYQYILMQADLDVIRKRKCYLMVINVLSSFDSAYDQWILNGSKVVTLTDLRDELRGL

| Molecule | perinuclear Mig1 relative to wild type (relative to wild type (1.00)) [1] | perinuclear Mig1 relative to wild type (relative to wild type (1.00)) [2] | perinuclear Mig1 relative to wild type (relative to wild type (1.00)) [3] | fold reduction in co-immunoprecipitation relative to Nup84-lexA (Mig1-GFP fusion protein) [fold] |
| --- | --- | --- | --- | --- |
| Mig1-GFP fusion protein (from UniProt P27705 1-504) (natural protein) | 0.43 | 0.03 | 1.3 |  |
| B1 |  |  |  | > 2 |
